Test results from patent US11214614B2, “LTBP complex-specific inhibitors of TGFβ and uses thereof” (Scholar Rock, Inc., priority 2019, dated 2022).

Assays:
huLTBP1 proTGFβ1 [1] = molecular target: T1, huLTBP1 proTGFβ1 (Homo sapiens, UniProt P01137+Q14766); assay: SPR (Biacore 8K) monovalent binding kinetics of Fabs, biotinylated antigen captured; parameters: biotin (complex biotinylated)
Procedure: (§1) A Biacore 8K system was employed to determine the monovalent binding affinity and the kinetic parameters for antigen binding of test antibodies. Association and dissociation kinetics of Fab fragments SR-AB42-HuFab, SR-AB63-HuFab and SR-AB43-HuFab to antigen complexes were measured, and resulting ka, kd and KD are provided below. Briefly, the binding kinetics were evaluated by surface plasmon resonance using Biacore 8K (GE Healthcare). Biotinylated capture antigens were immobilized to the chip (10 nM, ˜200 RU loading). A Biotin CAPture sensor chip was used to capture the biotinylated antigens. Fabs at 10, 5, 2.5, 1.25, and 0.6 nM concentrations were injected over the captured antigens. 0 nM was used as a reference. Affinities of LTBP antibodies to GARP and LRRC33 were confirmed using higher concentration of Fabs (100, 50, 25, 12.5, 6.25 nM). 0 nM was used as a reference. Multi-cycle kinetics was employed where each analyte concentration was injected in a separate cycle and the sensor chip surface was regenerated after each cycle. All the assays were carried out in freshly prepared 1×HBS-EP+buffer (10 mM HEPES, 150 mM NaCl, 3 mM EDTA, 0.05% Tween20, pH 7.4). Data were fit globally to a 1:1 binding model to obtain the kinetic parameters. The sensorgram for 0 nM analyte concentration was used as reference.
(§2) • 96 well plates—Greinerbio-one REF 650101 • Microplate Foils—GE Healthcare—CAT #28-9758-16 • Biotin CAPture Kit GE Healthcare product number 28920233 • Biacore running buffer—supplied as a 20× solution, diluted in Milli-Q water, TEKnova CAT #H8022 Method:
(§3) These experiments were performed using the Biacore 8K using the method “multi-cycle kinetics/affinity using Biotin CAPture kit.”
(§4) Data collection rate was set to 10 Hz and the Biotin CAPture step was performed for 300 seconds with a flow rate of 2 μL/minute. The Biotin CAPture reagent was used after a 1:5 dilution in 1× Biacore running buffer. Biotinylated ligands (the various complexes of TGFβ1) were utilized at a concentration of 10 nM and were immobilized to the sensor chip for 180 seconds with a flow rate of 10 μL/minute. The analytes, which are each of the Fabs, were tested at 10, 5, 2.5, 1.25, and 0.625 nM with a 0 nM control included. Analyte contact time was 120 seconds and the dissociation time was 900 seconds. The regeneration cycle utilized was 120 seconds with a flow rate of 10 μL/minute.
(§5) The evaluation method used was “multi-cycle affinity using capture” and a 1:1 binding model was used. […] Global fits were utilized for every KD determination.

huGARP proTGFβ1 [2] = molecular target: T2, huGARP proTGFβ1 (Homo sapiens, UniProt P01137); assay: Octet (BLI) binding, IgG captured on AHC tips, antigen at 100 nM; settings: N.B. = non-binder under conditions of this assay; for ForteBio IgG KD Hu GARP-proTGFβ1 (M) Avid: Table 9, cycle 3, IgG1-agly, 1:1 fit; for ForteBio IgG KD Hu GARP-proTGFβ1 in solution (M) Avid: Table 10, same assay conditions as Table 9
Procedure: (§6) Suitable methods for in vitro binding assays to determine the parameters of binding kinetics include Bio-layer Interferometry (BLI)-based assays such as Octet, and surface plasmon resonance (SPR)-based assays, such as Biacore systems (see, for example: biophysics.bioc.cam.ac.uk/wp-content/uploads/2011/02/Biacore_assay_handbook.pdf).
(§7) The affinity of SR-AB10, SR-AB2 and SR-AB13 was measured by Octet assay. The protocol used to measure the affinity of the antibodies to the complexes provided herein is summarized below.
(§8) • 96 well black polypropylene plates • AHC Octet tips (anti-human IgG Fc capture tips) (FortdBio) • 10× kinetics buffer (FortdBio) (diluted to 1× in PBS) • reiner Bio-One 96-Well Half Area Microplates (VWR cat #82050-044) Procedure:
(§9) Notes: The volume within each well during an Octet experiment is 100 uL.
(§10) A shake speed of 1000 rpm is used for all assay steps.
(§11) Pre-Wet Tips: • Biosensors must be pre-wet in 1× kinetics buffer (lx KB) for at least 10 minutes before starting an experiment. This can be done inside the Octet or on the bench.
(§12) Loading: • Tips are baselined in 1× KB for 1 minute before loading. • AHC tips are loaded with antibody at a concentration of 1 μg/mL (˜7 nM) for 3 minutes. A limit is set so that loading will stop when any one sensor reaches a response of 1 nanometer. • Tips are baselined in buffer for 1 minute after loading. The antibody should not dissociate from the tips during this time.
(§13) Antigen Association: • TGFβ1 in complex with various presentation molecules was associated to the immobilized antibodies at a single concentration of 100 nM in 1× KB.
(§14) Antibody Dissociation: • Dissociation in 1×KB was performed for 3 minutes.
(§15) Data Analysis using ForteBio Data analysis software 8.2: • Processing: align Y axis to last 5 seconds of baseline, perform inter-step correction with align to dissociation, and perform Savitzky-Golay filtering. • Analysis: 1:1 fitting model is utilized. Fitting is local and full. […] Results:
(§16) LTBP complex-specific antibodies from the first round of affinity maturation/optimization (SR-AB14, SR-AB16, SR-AB17, SR-AB18, SR-AB19) were selected for a second round of affinity maturation/optimization (i.e., CDR-H3 mutagenesis as described herein) and particular progeny antibodies (SR-AB20, SR-AB21, SR-AB22, SR-AB23, SR-AB24, SR-AB25, SR-AB26, SR-AB27, SR-AB28, and SR-AB29) were assessed for their ability to bind various proTGFβl constructs. Binding affinities of the optimized antibodies were measured by Octet against human LTBP1-proTGFβI, human LTBP3-proTGFb1, mouse LTBP1-proTGFβ1, mouse LTBP3-proTGFb1, and GARP-proTGFβl complexes, essentially as described in Example 6. In brief, test antibodies were immobilized to the surface of anti-human Fc capture biosensors (AHC) (ForteBio®) and binding was then tested against the various TGFβ1 complexes at a single concentration of 100 nM to assess binding affinities. The antigens were allowed to associate for 3 minutes followed by a 5-minute dissociation. Kinetics buffer (ForteBio®) was used throughout the experiment, and KD was determined using a 1:1 fitting model for each antibody antigen pair.
(§17) Binding affinities of the optimized antibodies were measured by Octet against human LTBP1-proTGFβ1, human LTBP3-proTGFβ1, mouse LTBP1-proTGFβ1, mouse LTBP3-proTGFβ1, and GARP-proTGFβ1 complexes, essentially as described in Example 6. In brief, test antibodies were immobilized to the surface of anti-human Fc capture biosensors (AHC) (ForteBio®) and binding was then tested against the various TGFβ1 complexes at a single concentration of 100 nM to assess binding affinities. The antigens were allowed to associate for 3 minutes followed by a 5-minute dissociation. Kinetics buffer (ForteBio®) was used throughout the experiment, and KD was determined using a 1:1 fitting model for each antibody antigen pair. […]

huLTBP1 proTGFβ1 [3] = molecular target: T1, huLTBP1 proTGFβ1; assay: as above; settings: Table 9, cycle 3, IgG1-agly; for Hu LTBP1-proTGFβ1 Kon: 1:1 fit; for Hu LTBP1-proTGFβ1 Koff: 5-minute dissociation
Procedure: as §6, §7, §8, §9, §10, §11, §12, §13, §14, §15, §16, §17

huLTBP3 proTGFβ1 [4] = molecular target: T3, huLTBP3 proTGFβ1 (Homo sapiens, UniProt P01137+Q9NS15); assay: as above; settings: Table 9, cycle 3, IgG1-agly; for Hu LTBP3-proTGFβ1 Kon: 1:1 fit; for Hu LTBP3-proTGFβ1 Koff: 5-minute dissociation
Procedure: as §6, §7, §8, §9, §10, §11, §12, §13, §14, §15, §16
Binding affinities of the optimized antibodies were measured by Octet against human LTBP1-proTGFβ1, human LTBP3-proTGFβ1, mouse LTBP1-proTGFβ1, mouse LTBP3-proTGFβ1, and GARP-proTGFβ1 complexes, essentially as described in Example 6. In brief, test antibodies were immobilized to the surface of anti-human Fc capture biosensors (AHC) (ForteBio®) and binding was then tested against the various TGFβ1 complexes at a single concentration of 100 nM to assess binding affinities. The antigens were allowed to associate for 3 minutes followed by a 5-minute dissociation. Kinetics buffer (ForteBio®) was used throughout the experiment, and KD was determined using a 1:1 fitting model for each antibody antigen pair.

huGARP proTGFβ1 [5] = molecular target: T2, huGARP proTGFβ1; assay: SPR (Biacore 8K) monovalent binding kinetics of Fabs, biotinylated antigen captured; parameters: biotin (complex biotinylated); settings: Fab, huGARP proTGFb1
Procedure: as §1, §2, §3, §4, §5

huLTBP3 proTGFβ1 [6] = molecular target: T3, huLTBP3 proTGFβ1; assay: as above; parameters: biotin (complex biotinylated); settings: Fab, huLTBP3 proTGFb1
Procedure: as §1, §2, §3, §4, §5

huLRRC33 proTGFβ1 = huLRRC33 proTGFβ1 (Homo sapiens, UniProt P01137); assay: as above; parameters: biotin (complex biotinylated); modified human kappa light chain signal peptide (N); Histidine tag (C); settings: Fab, huLRRC33 proTGFb1
Procedure: as §1, §2, §3, §4, §5

[7] = Fab, huLTBP1 proTGFβ1, SR-AB42-HuFab average of five, SR-AB63-HuFab average of four replicate experiments

T3 sequence (P01137 30-390): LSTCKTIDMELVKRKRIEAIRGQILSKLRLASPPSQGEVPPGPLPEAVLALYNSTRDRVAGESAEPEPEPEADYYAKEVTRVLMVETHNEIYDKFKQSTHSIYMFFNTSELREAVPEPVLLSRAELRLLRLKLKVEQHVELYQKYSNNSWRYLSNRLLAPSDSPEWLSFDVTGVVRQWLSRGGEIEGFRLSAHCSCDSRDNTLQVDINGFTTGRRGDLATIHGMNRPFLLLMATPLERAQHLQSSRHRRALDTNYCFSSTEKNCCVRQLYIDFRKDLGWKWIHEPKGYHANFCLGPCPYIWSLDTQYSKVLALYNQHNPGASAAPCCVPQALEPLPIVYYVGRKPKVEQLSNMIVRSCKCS
T3 sequence (Q9NS15 44-1303): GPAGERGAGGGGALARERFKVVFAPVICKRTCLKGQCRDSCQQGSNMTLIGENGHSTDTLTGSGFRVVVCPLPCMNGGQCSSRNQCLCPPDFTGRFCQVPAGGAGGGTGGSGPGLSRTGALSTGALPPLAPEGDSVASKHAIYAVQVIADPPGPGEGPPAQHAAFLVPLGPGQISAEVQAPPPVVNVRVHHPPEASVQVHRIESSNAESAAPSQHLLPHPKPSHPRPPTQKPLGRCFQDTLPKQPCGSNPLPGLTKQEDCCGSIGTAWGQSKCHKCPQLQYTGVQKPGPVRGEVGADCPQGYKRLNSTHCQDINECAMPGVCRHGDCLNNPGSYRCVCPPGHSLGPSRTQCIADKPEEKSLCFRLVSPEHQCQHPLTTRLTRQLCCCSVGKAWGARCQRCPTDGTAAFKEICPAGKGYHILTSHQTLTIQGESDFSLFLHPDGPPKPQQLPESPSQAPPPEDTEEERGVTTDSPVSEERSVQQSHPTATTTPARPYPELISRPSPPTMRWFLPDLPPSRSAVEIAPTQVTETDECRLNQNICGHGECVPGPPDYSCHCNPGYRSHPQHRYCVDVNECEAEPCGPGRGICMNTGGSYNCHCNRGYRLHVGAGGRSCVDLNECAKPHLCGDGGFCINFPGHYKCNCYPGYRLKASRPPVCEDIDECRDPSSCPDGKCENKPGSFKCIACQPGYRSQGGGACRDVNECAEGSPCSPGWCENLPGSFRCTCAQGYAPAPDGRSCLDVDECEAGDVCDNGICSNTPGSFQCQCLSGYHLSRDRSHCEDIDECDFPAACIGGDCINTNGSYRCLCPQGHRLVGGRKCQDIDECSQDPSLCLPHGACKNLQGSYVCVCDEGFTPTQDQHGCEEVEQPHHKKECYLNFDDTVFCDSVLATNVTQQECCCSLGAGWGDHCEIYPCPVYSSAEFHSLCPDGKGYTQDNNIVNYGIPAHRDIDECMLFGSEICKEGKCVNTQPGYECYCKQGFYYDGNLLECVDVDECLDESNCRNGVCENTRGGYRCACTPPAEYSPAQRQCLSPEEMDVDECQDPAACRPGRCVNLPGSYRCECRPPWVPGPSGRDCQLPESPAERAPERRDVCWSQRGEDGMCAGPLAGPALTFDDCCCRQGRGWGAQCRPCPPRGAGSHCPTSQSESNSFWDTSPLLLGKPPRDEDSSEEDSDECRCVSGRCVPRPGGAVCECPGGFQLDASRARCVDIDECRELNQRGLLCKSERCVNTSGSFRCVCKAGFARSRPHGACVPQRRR
T1 sequence (P01137 30-390): as the sequence (P01137 30-390) above
T1 sequence (Q14766 347-1721 limits assumed): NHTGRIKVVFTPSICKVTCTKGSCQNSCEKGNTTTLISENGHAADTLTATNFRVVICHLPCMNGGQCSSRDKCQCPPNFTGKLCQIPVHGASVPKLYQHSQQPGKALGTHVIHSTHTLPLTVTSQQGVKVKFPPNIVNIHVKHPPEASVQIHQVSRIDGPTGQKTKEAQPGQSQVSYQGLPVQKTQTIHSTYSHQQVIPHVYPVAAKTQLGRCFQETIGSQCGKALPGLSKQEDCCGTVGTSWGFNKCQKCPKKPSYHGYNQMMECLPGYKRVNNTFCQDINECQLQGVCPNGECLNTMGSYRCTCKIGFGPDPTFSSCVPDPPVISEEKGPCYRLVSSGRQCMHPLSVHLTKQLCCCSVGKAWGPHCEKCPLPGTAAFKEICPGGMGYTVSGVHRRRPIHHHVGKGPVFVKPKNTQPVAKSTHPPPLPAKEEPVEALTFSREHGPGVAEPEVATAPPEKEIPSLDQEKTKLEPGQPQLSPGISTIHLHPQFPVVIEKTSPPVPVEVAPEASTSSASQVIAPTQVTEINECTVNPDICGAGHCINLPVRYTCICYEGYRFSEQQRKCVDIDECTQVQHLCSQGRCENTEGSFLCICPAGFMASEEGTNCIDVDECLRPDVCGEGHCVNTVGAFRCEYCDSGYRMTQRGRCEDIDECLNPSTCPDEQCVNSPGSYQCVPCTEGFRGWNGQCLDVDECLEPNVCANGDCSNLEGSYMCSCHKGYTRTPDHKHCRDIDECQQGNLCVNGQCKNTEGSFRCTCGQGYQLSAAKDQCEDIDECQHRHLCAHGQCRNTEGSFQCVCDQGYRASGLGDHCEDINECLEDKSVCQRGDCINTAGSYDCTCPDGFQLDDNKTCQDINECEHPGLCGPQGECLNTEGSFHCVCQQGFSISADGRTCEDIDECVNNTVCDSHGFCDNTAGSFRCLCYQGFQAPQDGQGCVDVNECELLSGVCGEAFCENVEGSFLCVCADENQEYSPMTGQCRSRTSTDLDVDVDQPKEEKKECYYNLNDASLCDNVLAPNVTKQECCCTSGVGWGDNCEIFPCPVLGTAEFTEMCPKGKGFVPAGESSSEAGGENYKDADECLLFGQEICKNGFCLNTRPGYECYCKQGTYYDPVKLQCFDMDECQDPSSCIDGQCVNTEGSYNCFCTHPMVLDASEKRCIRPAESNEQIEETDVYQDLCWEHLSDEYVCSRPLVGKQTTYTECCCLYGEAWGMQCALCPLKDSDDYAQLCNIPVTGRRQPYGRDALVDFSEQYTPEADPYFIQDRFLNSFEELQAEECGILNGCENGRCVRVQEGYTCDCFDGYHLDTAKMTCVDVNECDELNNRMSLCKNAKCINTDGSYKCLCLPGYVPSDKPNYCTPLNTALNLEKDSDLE
T2 sequence (P01137 30-390): as the sequence (P01137 30-390) above
T2 sequence (Q14392 18-627 partner limits assumed): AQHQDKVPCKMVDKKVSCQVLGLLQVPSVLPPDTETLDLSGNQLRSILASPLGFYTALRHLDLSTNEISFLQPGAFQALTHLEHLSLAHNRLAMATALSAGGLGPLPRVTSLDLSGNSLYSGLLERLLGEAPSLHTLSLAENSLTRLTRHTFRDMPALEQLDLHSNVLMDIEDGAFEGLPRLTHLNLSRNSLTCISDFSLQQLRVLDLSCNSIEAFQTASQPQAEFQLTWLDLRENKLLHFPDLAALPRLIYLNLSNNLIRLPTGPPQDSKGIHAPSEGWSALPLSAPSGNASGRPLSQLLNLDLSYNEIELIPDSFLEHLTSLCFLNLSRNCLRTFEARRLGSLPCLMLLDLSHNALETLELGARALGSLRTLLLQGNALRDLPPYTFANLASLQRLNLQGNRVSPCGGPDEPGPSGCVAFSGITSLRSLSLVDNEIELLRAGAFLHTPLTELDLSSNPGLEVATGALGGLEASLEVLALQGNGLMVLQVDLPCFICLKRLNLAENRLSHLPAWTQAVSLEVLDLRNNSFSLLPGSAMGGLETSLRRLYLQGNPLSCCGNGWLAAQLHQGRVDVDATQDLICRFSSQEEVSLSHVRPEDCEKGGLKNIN
Sequence of huLRRC33 proTGFβ1 (P01137 30-390): as the sequence (P01137 30-390) above
Sequence of huLRRC33 proTGFβ1 (Q86YC3 with tags, fused parts or gaps partner limits assumed): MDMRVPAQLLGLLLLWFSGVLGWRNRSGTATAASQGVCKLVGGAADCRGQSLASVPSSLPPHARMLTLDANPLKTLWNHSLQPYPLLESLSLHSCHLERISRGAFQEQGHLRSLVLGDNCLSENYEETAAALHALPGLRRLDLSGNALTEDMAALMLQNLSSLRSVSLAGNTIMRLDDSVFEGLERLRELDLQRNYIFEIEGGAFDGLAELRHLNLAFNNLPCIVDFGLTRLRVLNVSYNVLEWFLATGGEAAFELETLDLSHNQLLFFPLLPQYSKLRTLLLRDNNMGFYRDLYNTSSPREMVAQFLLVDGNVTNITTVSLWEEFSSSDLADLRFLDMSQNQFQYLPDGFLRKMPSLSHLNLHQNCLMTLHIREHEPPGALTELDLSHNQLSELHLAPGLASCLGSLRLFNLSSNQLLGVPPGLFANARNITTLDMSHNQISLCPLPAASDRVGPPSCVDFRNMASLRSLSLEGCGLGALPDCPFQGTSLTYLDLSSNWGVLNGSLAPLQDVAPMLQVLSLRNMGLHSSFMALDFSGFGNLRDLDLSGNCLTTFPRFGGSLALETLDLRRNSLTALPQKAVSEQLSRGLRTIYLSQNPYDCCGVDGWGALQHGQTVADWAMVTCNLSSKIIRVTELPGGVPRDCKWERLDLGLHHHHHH

Molecule	KD of Fab fragments (huLTBP1 proTGFβ1 [1]; SPR, Fab fragments, antigen not given)	ForteBio IgG KD Hu GARP-proTGFβ1 (M) Avid (huGARP proTGFβ1 [2])	ForteBio IgG KD Hu GARP-proTGFβ1 in solution (M) Avid (huGARP proTGFβ1 [2])	Hu LTBP1-proTGFβ1 Kon (huLTBP1 proTGFβ1 [3]) [M⁻¹ s⁻¹]	Hu LTBP1-proTGFβ1 Koff (huLTBP1 proTGFβ1 [3]) [s⁻¹]	Hu LTBP3-proTGFβ1 Kon (huLTBP3 proTGFβ1 [4]) [M⁻¹ s⁻¹]	Hu LTBP3-proTGFβ1 Koff (huLTBP3 proTGFβ1 [4]) [s⁻¹]	ka (huGARP proTGFβ1 [5]) [M⁻¹ s⁻¹]	kd (huGARP proTGFβ1 [5]) [s⁻¹]	ka (huLTBP1 proTGFβ1 [1]; [7]) [M⁻¹ s⁻¹]	kd (huLTBP1 proTGFβ1 [1]; [7]) [s⁻¹]	ka (huLTBP3 proTGFβ1 [6]) [M⁻¹ s⁻¹]	kd (huLTBP3 proTGFβ1 [6]) [s⁻¹]	ka (huLRRC33 proTGFβ1) [M⁻¹ s⁻¹]	kd (huLRRC33 proTGFβ1) [s⁻¹]
SR-AB43: cycle 3 light chain-optimized antibody, lineage SR-AB23; CDRs SEQ ID NO: 172-177 (antibody, V domains shown) VH: QVQLVESGGGVVQPGRSLRLSCAASGFTFRSYVMHWVRQAPGKGLEWVAVISHEGSLKYYADSVKGRFTISRDNSKNTLYLQMNSLRAEDTAVYYCARPRIAARRGGFGYWGQGTLVTVSS VL: NFMLTQPHSVSESPGKTVTISCTRSSGNIDYNYVQWYQQRPGSSPTTVIYEDNVRPSGVPDRFSGSIDSSSNSASLTISGLKTEDEADYYCQSYDSDNQRVVFGGGTKLTVL	sub-nanomolar	N.B.	N.B.	244000	0.000159	337000	6e-05								
SR-AB40: cycle 3 light chain-optimized antibody, lineage SR-AB23; CDRs SEQ ID NO: 154-159 (antibody, V domains shown) VH: QVQLVESGGGVVQPGRSLRLSCAASGFTFRSYVMHWVRQAPGKGLEWVAVISHEGSLKYYADSVKGRFTISRDNSKNTLYLQMNSLRAEDTAVYYCARPRIAARRGGFGYWGQGTLVTVSS VL: NFMLTQPHSVSESPGKTVTISCTRSSGNIDNNYVQWYQQRPGSSPTTVIYEDNQRPSGVPDRFSGSIDSSSNSASLTISGLKTEDEADYYCQSYDYSNQGVVFGGGTKLTVL		N.B.	N.B.	150000	6e-05	182000	6.07e-05								
SR-AB62: cycle 3 light chain-optimized antibody, lineage SR-AB24; CDRs SEQ ID NO: 286-291 (antibody, V domains shown) VH: QLQLQESGPGLAKPSETLSLTCTVSGGSIRSSSYYWGWIRQPPGKGLEWIGSISYSATTYYNPSLKSRVTISVDTSKNQFSLKLSSVTAADTAVYYCASDPSYDSAAGMDVWGQGTTVTVSS VL: DIQMTQSPSSLSASVGDRVTITCRASKVISSYLNWYQQKPGKAPKLLIYYASSLQSGVPSRFSGSGSGTDFTLTISSLQPEDFATYYCQQSNDWPFTFGGGTKVEIK		N.B.	N.B.	140000	6.82e-05	203000	7.47e-05								
SR-AB64: cycle 3 light chain-optimized antibody, lineage SR-AB26; CDRs SEQ ID NO: 298-303 (antibody, V domains shown) VH: QLQLQESGPGLVKPSETLSLTCTVSGGSIRSSSYYWGWIRQPPGKGLEWIGSISYSATTYYNPSLKSRVTISVDTSKNQFSLKLSSVTAADTAVYYCAGDPSYDSIAGMQVWGQGTTVTVSS VL: DIQMTQSPSSLSASVGDRVTITCRASQSISYYLNWYQQKPGKAPKLLIYSASSRQSGVPSRFSGSGSGTDFTLTISSLQPEDFATYYCQQGFDFPLTFGGGTKVEIK		N.B.	N.B.			195000	9.18e-05								
SR-AB63-HuFab: human Fab fragment of SR-AB63 used in SPR (antibody, V domains shown) VH: QLQLQESGPGLVKPSETLSLTCTVSGGSIRSSSYYWGWIRQPPGKGLEWIGSISYSATTYYNPSLKSRVTISVDTSKNQFSLKLSSVTAADTAVYYCAGDPSYDSIAGMQVWGQGTTVTVSS VL: DIQLTQSPSSLSASVGDRVTITCRASQSISSYLNWYQQKPGKAPKLLIYAASNLQSGVPSRFSGSGSGTDFTLTISSLQPEDFATYYCQQSFDWPLTFGGGTKVEIK								2660	0.00093	371000	3.82e-08	394000	4.99e-05	5000	0.00108
